Measurements reported in article PMC5449618 (Nucleic Acids Research, 2017).

Experiments:
[1] = target: GST-fused HBO1 MYST domain (residues 336–611) (human, UniProt O95251 336-611); assay: pull-down
[2] = target: HBO1 MYST domain (residues 336–611), without tag, co-expressed with BRPF2 (human, UniProt O95251 336-611); assay: crystal structure
HBO1 MYST domain (residues 336–611), without tag, co-expressed with BRPF2, sequence (O95251 336-611): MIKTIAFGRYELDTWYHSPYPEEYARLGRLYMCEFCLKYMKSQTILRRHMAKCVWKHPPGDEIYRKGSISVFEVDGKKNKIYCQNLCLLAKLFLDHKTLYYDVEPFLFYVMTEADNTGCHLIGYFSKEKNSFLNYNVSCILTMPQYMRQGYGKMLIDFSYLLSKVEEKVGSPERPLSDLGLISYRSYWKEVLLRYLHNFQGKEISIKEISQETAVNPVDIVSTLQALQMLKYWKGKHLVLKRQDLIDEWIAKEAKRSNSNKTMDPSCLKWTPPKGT

GST-fused HBO1 MYST domain (residues 336–611), sequence (O95251 336-611): as above

Row | Binder | binding result [1] | stoichiometry N [2]
1 | MVEIEIEGRLHRISIFDPLEIILEDDLT (domain or fragment, human, UniProt O95696 39-66, looked up) [Sumo–BRPF2 (39–66)] | binds | –
2 | Sumo–BRPF2 (1–80) (domain or fragment, human, UniProt O95696 1-80, looked up) MRRKGRCHRGSAARHPSSPCSVKHSPTRETLTYAQAQRMVEIEIEGRLHRISIFDPLEIILEDDLTAQEMSECNSNKENS | binds | –
3 | Sumo–BRPF2 (1–205) (domain or fragment, human, UniProt O95696 1-205, looked up) MRRKGRCHRGSAARHPSSPCSVKHSPTRETLTYAQAQRMVEIEIEGRLHRISIFDPLEIILEDDLTAQEMSECNSNKENSERPPVCLRTKRHKNNRVKKKNEALPSAHGTPASASALPEPKVRIVEYSPPSAPRRPPVYYKFIEKSAEELDNEVEYDMDEEDYAWLEIVNEKRKGDCVPAVSQSMFEFLMDRFEKESHCENQKQG | binds | –
4 | MVEIEIEGRLHRISIFDPLEIILE (domain or fragment, human, UniProt O95696 39-62, looked up) [Sumo–BRPF2 (39–62)] | binds | –
5 | LTYAQAQRMVEIEIEGRLHRISIFDPLEIILE (domain or fragment, human, UniProt O95696 31-62, looked up) [Sumo–BRPF2 (31–62)] | binds | –
6 | LTYAQAQRMVAIAIAGRLHRISIFDPLEIILEDDLTAQEMSECNSNKENS (domain or fragment, human, UniProt O95696 31-80, looked up) [Sumo–BRPF2 (31–80) E41A/E43A/E45A] | binds | –
7 | LTYAQAQRMVEIEIEGRLHRISIFDPLEIILEDDLTAQEMSECNSNKENS (domain or fragment, human, UniProt O95696 31-80, looked up) [BRPF2 (31–80), His6 tag removed, co-expressed with the HBO1 MYST domain] | – | 1
8 | LTYAQAQRMVKIKIKGRLHRISIFDPLEIILEDDLTAQEMSECNSNKENS (domain or fragment, human, UniProt O95696 31-80, looked up) [Sumo–BRPF2 (31–80) E41K/E43K/E45K] | binds | –
9 | LTYAQAQRMVEIEIEGRLHRISIFDPLEIILAAALTAQEMSECNSNKENS (domain or fragment, human, UniProt O95696 31-80, looked up) [Sumo–BRPF2 (31–80) E62A/D63A/D64A] | binds | –
10 | LTYAQAQRMVEIEIEGRLHRISIFDPLEIILKKKLTAQEMSECNSNKENS (domain or fragment, human, UniProt O95696 31-80, looked up) [Sumo–BRPF2 (31–80) E62K/D63K/D64K] | binds | –
